{"source": "patent US20240076386A1", "about": "(Pfizer, published 2024)", "binders": {"B1": {"name": "optimized anti-E-selectin antibody 1282 (antibody, human IgG1, kappa, V domains shown)", "VH": "EVQLVESGGGLVQPGGSLRLSCAASGYAIRSAYMHWVRQAPGKGLEWVARIDPANGNTIYVDSVEGRFTISADNAKNSAYLQMNSLRAEDTAVYYCAMDLYSTSEYWGQGTLVTVSS", "VL": "DIQMTQSPSSLSASVGDRVTITCKTSQNIERYLNWYQQKPGKAPKLLIYAASSLQSGVPSRFSGSGSGTDFTLTISSLQPEDFATYFCLQDNAWPLTFGQGTKVEIKR", "notes": "effector-null human IgG1, kappa"}, "B2": {"name": "optimized anti-E-selectin antibody 1448 (antibody, human IgG1, kappa, V domains shown)", "VH": "B1 VH with E65K, G66E", "VL": "B1 VL", "notes": "as for B1"}, "B3": {"name": "optimized anti-E-selectin antibody 1444 (antibody, human IgG1, kappa, V domains shown)", "VH": "B1 VH with E65T", "VL": "B1 VL", "notes": "as for B1"}, "B4": {"name": "optimized anti-E-selectin antibody 1284 (antibody, human IgG1, kappa, V domains shown)", "VH": "B1 VH with D62E", "VL": "B1 VL", "notes": "as for B1"}}, "note": "Where a chain is given by its changes, count along the chain named.", "data": [{"biological_target": "T1, cynomolgus monkey E-selectin extracellular domain with 10 His purification tail (cynomolgus monkey, UniProt P16581 22-554 (human entry))", "T1 construct": "also called cynomolgus E-selectin; truncated cynomolgus monkey E-selectin", "T1 chain": "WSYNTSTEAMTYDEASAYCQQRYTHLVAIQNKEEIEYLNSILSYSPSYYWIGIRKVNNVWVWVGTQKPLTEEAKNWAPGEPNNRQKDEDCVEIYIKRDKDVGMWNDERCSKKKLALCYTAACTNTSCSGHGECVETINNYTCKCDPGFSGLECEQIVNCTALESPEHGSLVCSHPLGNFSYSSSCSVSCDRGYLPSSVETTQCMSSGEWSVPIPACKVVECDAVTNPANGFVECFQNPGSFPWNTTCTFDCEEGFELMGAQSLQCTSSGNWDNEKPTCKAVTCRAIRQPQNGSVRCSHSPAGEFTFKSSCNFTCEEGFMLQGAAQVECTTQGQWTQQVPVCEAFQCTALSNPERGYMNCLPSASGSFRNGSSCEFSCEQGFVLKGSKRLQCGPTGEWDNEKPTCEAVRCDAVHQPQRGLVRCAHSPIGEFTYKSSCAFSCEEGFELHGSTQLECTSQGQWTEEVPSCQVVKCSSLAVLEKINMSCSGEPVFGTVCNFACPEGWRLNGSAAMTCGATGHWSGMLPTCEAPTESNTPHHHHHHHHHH", "test": "SPR, antibody captured, E-selectin analyte", "description": "(§1) All flow cells were blocked with 1M Ethanolamine-HCl (ETH) for 7 minutes at 10 μL/minute. Final immobilization level of the capture antibody was approximately 10,000 resonance units (RU). The running buffer for immobilization and kinetics was HBS-EP+(10 mM 4-(2-hydroxyethyl)-1-piperazineethanesulfonic acid (HEPES) pH 7.4, 150 mM sodium chloride, 3 mM ethylenediaminetetraacetic acid (EDTA), 0.05% (v/v) Tween-20).\n(§2) To characterize binding of antibodies to human, cynomolgus monkey, and mouse E-selectin, an antibody was diluted to 0.5 μg/mL in HBS-EP+ and captured by the anti-human IgG immobilized on flow cells 2, 3 and 4 for 30 seconds to 1 minute at a flow rate of 10 μL/minute to achieve a capture level of 70 to 300 RU. Flow cell 1 was used as a reference surface. […] HBS-EP+ buffer cycles collected for each captured antibody were used for double-referencing (Myszka D G. J. Mol. Recognition 1999; 12(5):279-84). At the end of each cycle, the entire anti-IgG surface was regenerated by a 30 second pulse of 3 M MgCl₂ and a 30 second pulse of ionic buffer (1.83 M MgCl₂, 0.92 M Urea, 1.83 M Guanidine HCl, pH 7.4) (Andersson K. Analy. Chem. 1999; 71(13): 2475-81). Kinetic assays were conducted at 25° C. at a collection rate of 10 Hertz (Hz) on a BIAcore™ T200 instrument (GE Healthcare). Rate constants and affinities were determined by fitting the data to a 1:1 binding model in BIAcore™ T200 Evaluation software version 3.0 (GE Healthcare).\n(§3) This was done by first binding the antibody to immobilized anti-human IgG. After antibody capture, dilutions of the E-selectin proteins were flowed over and the association rate constant (ka), disassociation rate constant (kd), t½, and KD values were determined for binding to human and cynomolgus (Table 26).", "units": {"Kd": "nM", "koff": "s⁻¹", "kon": "M⁻¹ s⁻¹", "t½": "s"}, "values": [{"binder": "B1", "Kd": 78.3, "koff": 0.0176, "kon": 227000, "t½": 39.4}, {"binder": "B2", "Kd": 67.8, "koff": 0.015, "kon": 222000, "t½": 46.2}, {"binder": "B3", "Kd": 81.5, "koff": 0.0171, "kon": 211000, "t½": 40.5}, {"binder": "B4", "Kd": 76.5, "koff": 0.018, "kon": 236000, "t½": 38.5}]}, {"biological_target": "T2, human E-selectin extracellular domain with 10 His purification tail (human, UniProt P16581 22-556)", "T2 construct": "also called soluable human E-selectin extracellular domain; rhE-Selectin", "T2 sequence": "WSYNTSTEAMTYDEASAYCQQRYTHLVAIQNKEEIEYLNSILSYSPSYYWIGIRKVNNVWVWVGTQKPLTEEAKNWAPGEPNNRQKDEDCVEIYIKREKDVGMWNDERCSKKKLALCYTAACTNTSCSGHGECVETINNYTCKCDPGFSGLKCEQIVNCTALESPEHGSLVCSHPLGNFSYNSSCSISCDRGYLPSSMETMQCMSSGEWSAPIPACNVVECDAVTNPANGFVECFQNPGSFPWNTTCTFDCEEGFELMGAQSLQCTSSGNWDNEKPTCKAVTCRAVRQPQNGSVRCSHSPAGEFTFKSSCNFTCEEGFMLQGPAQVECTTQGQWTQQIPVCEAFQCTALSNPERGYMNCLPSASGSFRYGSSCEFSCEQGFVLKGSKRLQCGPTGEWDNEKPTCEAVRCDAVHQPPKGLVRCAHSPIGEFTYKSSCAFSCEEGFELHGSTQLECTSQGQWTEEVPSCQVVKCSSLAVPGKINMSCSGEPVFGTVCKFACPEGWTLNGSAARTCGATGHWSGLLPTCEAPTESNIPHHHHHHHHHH", "test": "SPR, antibody captured, E-selectin analyte", "description": "as §1, §2, §3", "units": {"Kd": "nM", "koff": "s⁻¹", "kon": "M⁻¹ s⁻¹", "t½": "s"}, "values": [{"binder": "B1", "Kd": 70.3, "koff": 0.0141, "kon": 201000, "t½": 49.3}, {"binder": "B2", "Kd": 60.5, "koff": 0.0126, "kon": 210000, "t½": 55}, {"binder": "B3", "Kd": 61.8, "koff": 0.0163, "kon": 264000, "t½": 42.7}, {"binder": "B4", "Kd": 65.2, "koff": 0.0145, "kon": 222000, "t½": 48}]}]}
